By stoichiometry N is commonly meant the number of molecules, sites or subunits per partner or assembly.

In experiment [1] the target is F1FO-ATP synthase (complex V) (P. falciparum). Kind of experiment: native gel or EMSA; high molecular mass (HMM) complexome profiles: GCT3D experiment repeated on a 3-16% BN gel, only the top part of the gel (Mr app. >1000 kDa) analysed; gametocytes, digitonin.
For experiment [2] the target is unchanged. Kind of experiment: native gel or EMSA; complexome profiling after method 3 only (nitrogen cavitation without saponin, larger amounts of parasites; samples ABS3D and GCT3D), digitonin, BN-PAGE 4-16%, stacking gel also analysed. A general note: A gel shift assay detects complexes by their altered migration in electrophoresis.
In experiment [3] the target is cytochrome bc1 complex (CIII) (P. falciparum) (UniProt Q7HP03). Kind of experiment: native gel or EMSA; complexome profiling: mitochondria-enriched fractions of mixed ABS parasites or stage V gametocytes (enrichment methods 1-3), solubilised with digitonin or DDM, BN-PAGE on 4-16% gradient gels, gel slices analysed by LC-MS/MS; comigration of iBAQ migration profiles.

Take F1FO-ATP synthase (complex V): the stoichiometry N in experiment [1] and in experiment [2] was 2 in each case.
For “cytochrome bc1 complex (CIII), Q7HP03 1-376; Q8I6U9 1-394; Q8IL75 1-355; Q8ILJ5 1-88; Q8IJS2 1-192; Q9NLB3 1-137; C0H4H6 1-96; Q8I2I2 1-484; Q8I3N3 1-534; Q8IBM6 1-79; A0A5K1K9E9 1-163; Q8IB13 1-54”, in experiment [3], the stoichiometry N turned out to be 2.

The values above are taken from paper PMC8217502.
